Test results from the DeepSol protein solubility set.

Experiment: soluble on expression in E. coli; label from the status in PepcDB or PDB records

Soluble on expression in E. coli, not soluble:
MGSDKIHHHHHHMEEARIKALISLLDDEDVEVISQVEKELLAQGGSMIPFLEKEWEENFNPIVQKRIEDLVHLLQFVLLEDRLSQWKNKGGTDLMEGLWLICTYQYPDLEFNTIKSAMEQIYYEVWLDMKPDMLPLEQVKLVMNNVLFNKLKFSANTKNFHSPANSMISQVLESKKGNPISLCCIYMMVAQKLKLPVYGVNLPTLFILTYKSDDTQFYISPFHKGLIFTKEDIDNYLLQLNLAPIDLYYQPCNNIDIVARVLRNLIVSFEKLSEMERVDDVKKMLHFLTGEKY
MGSDKIHHHHHHMEEGSAGMGMSQNNSTLVAPQPKGIIDPATGKPVGSNDAYFTEINDELADKGFLVTSTDELITWARTGSLMWMQFGLACCAVEGLMQASGPRYDMERFGVAPRASPRQSDVMIVAGTLTNKMAPALRKVYDQMPEPRYVISMGSCANGGGYYHYSYAVVRGCDRVVPVDIYVPGCPPTAEALLYGVLLLQKKIRRTGTIER
MGSDKIHHHHHHMEETAETPAAVIPPPPPEDEPAELPATLGFVSHQPVMDRQQRVVAYDFFVRQGKRNIEAGKQQEFDRLLLATLHNMDIFRLLAYRRAFVHIAMTSLDDPQLRGMPAGSVIFVLEPLPGMVVAEHMLRQLDELQKLGLRFALEPAAYDQNMLSPALQADLFSRVDFMVLDFAGPSTRVLAPILDQLPKRYPGARWLARNVGTAEDMDVCLRAPGHNRFALFHGPFVTTAHALEGGKVDTNQTRVLQIMRLLRTNADPKEVEAQFKLDSVLLFKLLRFINSPIHGLSRKVQTIEETLLLLGRETLFKWLSMLLFTSRKEDGTALSLLEKSLIRARFMEKLGGYRGNKLEAEHLFLTGMFSLLDVLLNQPFPDVLDPLELPLTVREAVVERKGIFAPHLALAMACEQGDNVQIEALAKVLDFDLDLANQYYLDSVVWAQVVLRDSEVHNNVEAV
MGSDKIHHHHHHMEETFQLLYDTYHQDLYQFLFYMVKDKNQTEDLLQEVYIRVLNSYHTFEGRSSEKTWLLSIARHVAIDWFRKQQTIRQRILGTFDWDTQDVRDQQLLPDELAVQHENVREISCALDQCTIDQRAVIILRFIQGYSIQETAKALRFSESKVKTTQHRGLKVLRKHMELLREELMDDEVRMERRTDKGVVKSTSGS
MGSDKIHHHHHHMEFSAKQIAAFIQGEIIGDENATVHTFAKIEEGMPGAISFLSNPKYTPYIYETQSSIVLVNKDFVPEHEIRATLIKVDNAYESLAKLLNLYEMSKPKKQGIDSLAYIAPSAKIGENVYIGAFAYIGENAVIGDNTQIYPHTFVGDGVKIGNGCLLYSNVNVYHDCRIGNECILHSGAVIGADGFGFAPTPNGYDKIPQIGIVILEDKVDIGANTCVDRATMGATIIHSGAKIDNLVQIAHNDEIGSHTVMAAQVGIAGSAKIGEWCMFGGQVGIAGHITIGDRVNLGAQSGIPSSIKADSVLIGTPPMEPKAYFKAAVVTKNLPDMQKEIRNLRKEVEELKQLLNK
MGSDKIHHHHHHMEGYLNSRLVRNAARVALVVAIPATLAGCGINTIPTQDEATKTAWAEVQNQYQRRADLIPNLVATVKGYAAQEKDVLTAVTEARASATQVKVDASTITDPAQFQKFAAAQDQLSGVLGRLMVIQEQYPDLKSNQNFLALQSQLEGTENRITIARRDYNETAQKYNTTLRTFPSLLWAKTLYSDQKPAQLFQASAAAQSAPTVDFSSPPTATPPKVQ
MGSDKIHHHHHHMEIIKKKFPKIKRDYLDTLQINIGYKCNQACSHCHVDSSPSRTEMMSDDIIKLIPKVIKANEIKLLDITGGAPELHPKFKQLVIEVRSLNVEVMDRCNLTILKEPGYESLAGFLASNKVQITASLPCYLEGNVDKQRGKGVFEKSILALKQLNNLGYGIKDKGLLLNLVYNPSTPQLPPSQKELEDIYRRELKERYGIFFSNLYVLANMPINRYENYLKTIGKLEEYNKLLKDNHNPGNINSVMCRSTLSVDWKGFLYDCDFNQQLGMKRNGNVKHLNDLLIPLVSLKNNPISTGNHCFGCTAGAGSSCGGELT
MGSDKIHHHHHHMEKENIMTVDIEDFKKSQHILDYIDDDFAIVNSLDGIPYSNDTVRLNCFLIAVCAEGCIQLDINYRTYQLQAGDLLLGLPNTLISRTMLSPKYKIRLAGFSTRFLQRIIKMEKKTWNTAAHIHNNPVKSISEGGDDPVFRFYRDLIVAKINDEPHYYHREVMQHLFSALFCEMLGQLHKEIDAPDKGDSPKEGIKQADYTLRKFVELLSKDKGMHRSVSYYADALCYTPKHFSKVIKQACGRTPLDLINETTIEHIKYRLKRSDKSVKEIAEEFNFPNQSFFGKYVKMHLGTSPANYRNREDE
MGSDKIHHHHHHMEKGEPIVVVKEISKSYGKVEALKEVSFAVEQGEVFGLIGPDGAGKSTLFRILTTLLLADKGTATVNGLDVVTDYKQIRTKVGYMPGRFSLYQDLSVEENLEFFATVFHTLIQENYDLIKDIYQQIEPFKKRRAGALSGGMKQKLALSCSLIHKPDILFLDEPTTGVDPVSRKEFWQMLRNLRKQGITIIVSTPIMDEARQCDRIAFINHGQVHGIDTPERILQKFASILCPPPLEREEAQQMAAPVIEVEQLTKSFGHFTAVDHISFQVQRGEIFGFLGANGAGKTTAMRMLCGLSRPTSGVGKVAGYDIFREAEQVKRHIGYMSQKFSLYEDLKVWENIRLFAGIYGMKEMEIEEKTDELLERLGFADERDTLVKNLPLGWKQKLAFSVSIFHEPKIVFLDEPTGGVDPATRRQFWELIYQAADRGITVFVTTHYMDEAEYCNRISIMVDGQIKALDTPARLKEQFGVETMDDVFQQLARHAVRKAD
MGSDKIHHHHHHMEKIKGKNTVNCEICLHNSKTRPMFKHEGKNICIECLNALKFPRNFEEMKNEVMDYLDELRIRNNKYNCILGFSGGKDSVVALYLLVKELRIRPLCVTVDNGYLAEEALTNCKNVAKYFGVDWLVINKDFTKFFKETISKGESPCRVCSDMNMHELWQFARQTNIDTIVTGHELPFGTTAIRGMKKGINMLRLLVAYKLTEEDRYNILKEIPWEKPDLGGYTTNCLVLAPALVEFKKKHGFSFEYDRVSAMIRYGLMTREEAEEALKCPEVSDEIYEELKKRGLDFKNLKE
MGSDKIHHHHHHMEKKVLIVGISQKQKDFDYSMEELANLAAANNMEVVGEIRQNIDRENRATYVGKGKVDEIKGLAEMQDARLIIFNDELSPSQIRNLEEALELDVMDRTGLILAIFANRAKTKEAQLQVQIAKLQYELPRIFGQGEDMDQQSGKGGLSNRGSGEKKIETDRRTIKYQIRHLQKELDMLVDDREVRRRKRKKNEIPVVSLVGYTNAGKSTTMNGLVRAYSETAEKQVFEKDMLFATLETSVREIVLPDNKQFLLTDTVGFVSKLPHQLVKAFRSTLEEARDADLLIHVVDYSDPHYKTMMKTTEETLKAVGVEDVPVIYAYNKADLIEGEIYPKQTENTIVFSAREKESLEFLTEVIRKELFASYEKATFLIPFEAGNVVAYLNDHADVLATEYLENGTQIVAEVSPADLQKLAEYQVAE
MGSDKIHHHHHHMEKTILVHAAACAPAESCGYVVNTSAGERYFPCQNLSAEPTMYFRMAPEDYLRAQAAGDVVALVHSHPDGLPFLSDVDRRLQVQSGLPWWLVCHDRIYTFRCVPFLTGRVFEHGVTDCYTLFRDAYHLAGIEMPDFSRGEDWWKNGENLYLDNLEATGFYRVSGEEAQSGDILICCFGSSVANHAAIYCGNGELLHHIPDQLSKRERYTDKWQRRTHSIWRHRAWHESAFTGIYNDLAAALASV
MGSDKIHHHHHHMEKVIYIVWRDPSTKPETFAHDLRTKLAQQLLQLGARGVQINVQDEDVAPAAALRQVNTLPQMDGLVSVWVDSAITSLRRPFDDAVLAATGRMAGYLVTESQPIRNTRHPARAGERTPGFSQLAFLKRPPRLTHEAWLDTWHNRHTQVAIDTQDTFLYVQNVVVRALTYGAPPLDAVVEEGFPEAAMTDPQAFFDAPGDEAKYQRNLAAMMESCQRFIDFDKIDVVASSQYIVRPPAA
MGSDKIHHHHHHMELCTTICVDLAKQVFQLAGEDATGRVIYEDRIKSRQAFHDFLLRLPTTVAVLMECGPGAQAWARLLQAKGNPVRILPAQRVAEHRSGAKNDRNDCYAILRAGRDTSIASIPIKSTTALAIQALHRIRRGNIKRHTALGNQIRGLLLEHGVSMPQGDAAINKHVPRALEDASLPLPDLLRELLDELLMDWLSLGERITALSRRLEATAQEDKVAQRLITIRGVGPIIATAIVAKQTDPSRFASGRMYSAFFGIVPDQHSSGNKIRLGKMSKRGDGYIRSLMIQGAHSVLSQLRPDSDQPDDRRLLRWLSRLGRKEAAIRLANRNLRIIWALLQSDQVYQRKPNEKPEAAMSL
MGSDKIHHHHHHMELKKLDEGLFWPDYKNSIVNFSNSILELFDEKPLHRPFRFPKRVLENVRKVIVMVIDGLSFEIFSDTIHDDDVQVFPCSAVFPTTTAAALPSLYSALTPLEHGFLGYILYLREVGSLVNMIEMSPPGLPRDSVLRFHDFKFTTIFQRLQSKVKSFFLIPRYLLGTGFSRIMSQGSEQIGFSSFGDMIERTLEVLEKHDRTLVFIYWPTLDSIAHKNGVGREYIRELRWIYRILKSELLRRLKQDTLFFLVSDHGQISTPQDNEIWWNFSSEVMRFLDRPPAGEQRMMFLYTKKKRALIEYLKEKYGDFAVFLDTKDVVQLFGTGRKHPEFFSRVGDAVLITRETFSFNYRYTGKEESLSGRHGSLSYQELVVPLVVYRRW
MGSDKIHHHHHHMEQCNERPKVSVIIPVYNTCNYVQEALESICQQTLEELEIIVIDDGSTDCSRAIVEEIAIKDTRIQVYKQSNQGLSITRNQGLKFSTGEYIYFMDSDDFLEPDALELCYRKCTKEALDFVFFDAETFTIEPNIPESSFDYQRTLDLPEKICSGIDMLKTQLKTYKFKSSVCLNLFHREFICEERLSFYPGILHEDQLFMIQAYLHASKTGFIRRSFFHRRIRTNSIMTKKFTWKNMEGYLTVTNELLRELPIYPKTYHHTIFFFLRQMLDAAVWQAHTLSLPQRIKLFSLCLKYYRPYVTMRTLMVLLLKTSIHPRQ
MGSDKIHHHHHHMEQKLSESEQYLWHFIETHILEIPDYSIVKLSERANVSTATIVRTMKKKGYEGFTSFKHHLKDKENQNINFSALEKVDRGIRTAILKNEEEVTRTINMIEIGNIEDAIQKIKASRRIIIFARGFSELIAQEMMVKFQLAGKYCELHTDPEIIKNISKKLSKKDVALFVSLNGETQELVVAGKNCYDSEIGTILLTASKHSSLMKYIEIPFVGFKSEGSFFPDYEVRSRLPLSILARILLDAYALRTTT
MGSDKIHHHHHHMEQTGYGEHIAHTVRNVPYETAIQTEDIAGELAKKFALPYNHAKTITNVKLKRMADKGEIERLQKGIYCHVKQTFFGKVTPTADQVLLKTLMVQNGAKIGYESGASLLNKLGLTTLIPRDIEITTNRYGAKLPEGCHIKLRKPPMPVTDENWKYLQFIDVLMYLPDAHTDAEKPEVLLRQHAKEQQLDYLTLIFTARKYYPQKIVLPLIDLLMEVENETASR
MGSDKIHHHHHHMERAAFGKLVQALRREHRDEKGRVWTQEVLAERTQLPKRTIERIENGSLAHLDADILLRLADALELTIGERREFFFAATGIIEQKSATYKRSPEESLQYLIDMIRNMNVPAFVTDQYVNIIAANMITIRFFNIPMELIETAPLLPHGYNLMRVVFGTEYDFRRVVGTMWDEVARHNMQLFRAISLRVRADGYFVELLDNLMQYREFKRFWERAHLETEDTSAENFWYQYTHPVYGLLSYVSSRSQIPTSMGLLSMHTYIPLSPATTDLFAKLSTVANQDVIRLAPWPRSNG
